Key:
Claudin 6 (human) [1] = biological target: T1, Claudin 6 (human) (human, UniProt P56747 1-220); assay: binding assay of the 13th table, method not described
T1 construct: Expressed on transfected HEK-293T cells or naturally on PA-1 cells for flow cytometry; For the Octet KD values it was the intact protein embedded in virus-like particles (lipoparticles); also called hsCLDN6; CLDN6
T1 chain: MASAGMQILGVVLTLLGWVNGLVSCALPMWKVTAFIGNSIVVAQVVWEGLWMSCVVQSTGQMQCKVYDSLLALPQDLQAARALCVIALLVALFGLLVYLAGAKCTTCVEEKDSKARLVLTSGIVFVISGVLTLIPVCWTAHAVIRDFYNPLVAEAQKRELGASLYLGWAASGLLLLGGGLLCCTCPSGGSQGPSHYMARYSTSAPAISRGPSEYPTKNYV

Claudin 6 (human) [2] = biological target: T1, Claudin 6 (human); assay: flow cytometry, 66 nM MAb on HEK-293T cells expressing claudin6
Experimental: Expression and Binding of claudin6 MAbs. Claudin 6 MAbs produced using their natural light chain, or produced using a different light chain. Yield represents the preparation of the purified MAb and ug of protein resulting from the preparation. Binding represents 66 nM of the indicated MAb binding to HEK-293T cells expressing the target claudin6. The Controls represents the same MAbs staining HEK-293T cells not transfectedwith claudin6. Staining was detected by flow cytometry (geometric mean fluorescence). N/A, not available.

Claudin 6 (human) [3] = biological target: T1, Claudin 6 (human); assay: flow cytometry, HEK-293T cells transfected with plasmids for the indicated proteins; pUC = empty vector control
Claudin 9 = biological target: T2, Claudin 9 (UniProt O95484 1-217); assay: biosensor (Forte Octet), intact claudin in virus-like particles (lipoparticles)
T2 construct: Octet KD values: intact claudin protein embedded in virus-like particles (lipoparticles); also called CLDN9
T2 sequence (looked up): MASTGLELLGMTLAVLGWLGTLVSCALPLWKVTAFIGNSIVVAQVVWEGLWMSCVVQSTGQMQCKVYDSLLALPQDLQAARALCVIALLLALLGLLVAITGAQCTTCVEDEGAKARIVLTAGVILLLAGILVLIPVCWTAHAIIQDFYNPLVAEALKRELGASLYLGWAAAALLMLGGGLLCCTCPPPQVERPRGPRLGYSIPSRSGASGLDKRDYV
Experimental: Affinity of various antibodies against CLDN6 as compared to CLDN9, CLDN3, and CLDN4 was measured using a biosensor. Biosensor affinity measurement of the various antibodies against the proteins was determined using a Forte Octet, which was used for biosensor measurements, using intact claudin proteins embedded in virus-like particles (lipoparticles). The KD for different antibodies is shown below.

Claudin 4 = biological target: T3, Claudin 4 (UniProt O14493 1-209); assay: flow cytometry, HEK-293T cells transiently transfected with the indicated claudin; pUC19 = empty vector control
T3 construct: also called CLDN4
T3 sequence (looked up): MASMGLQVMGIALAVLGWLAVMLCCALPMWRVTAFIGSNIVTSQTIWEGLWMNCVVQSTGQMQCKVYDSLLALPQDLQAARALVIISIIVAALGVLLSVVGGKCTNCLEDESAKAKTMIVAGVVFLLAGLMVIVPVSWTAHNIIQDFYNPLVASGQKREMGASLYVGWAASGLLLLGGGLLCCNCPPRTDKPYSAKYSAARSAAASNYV
Experimental: (§1) FIG. 2 illustrates the results of a binding assay showing that Claudin 6 MAbs bind to human Claudin 6 preferentially over other Claudin proteins. Human embryonic kidney 293T (HEK-293T) cells were transiently transfected with DNA for the indicated Claudin protein or empty vector along with GFP (pUC) for 22 hours.

Claudin 3 = biological target: T4, Claudin 3 (UniProt O15551 1-220); assay: as above
T4 construct: also called CLDN3
T4 sequence (looked up): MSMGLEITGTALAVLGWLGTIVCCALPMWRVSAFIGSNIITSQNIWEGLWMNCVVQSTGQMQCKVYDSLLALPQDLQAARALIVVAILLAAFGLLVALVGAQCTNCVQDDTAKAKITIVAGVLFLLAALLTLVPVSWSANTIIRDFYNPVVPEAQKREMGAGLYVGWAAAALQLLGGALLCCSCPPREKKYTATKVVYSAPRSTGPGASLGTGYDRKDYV
Experimental: as §1

B1: IM271 (antibody, V domains shown)
VH: EVQLLESGGGLVQPGGSLRLSCAASGFTFSSYAMSWVRQAPGKGLEWVAGISSSGRYTGYADSVKGRFTISRDNSKNTLYLQMNSLRAEDTAVYYCAKSVGNGNSWSGYIATSIDAWGQGTLVTVSS
VL: SYELTQPPSVSVSPGQTARITCSGGSGSYGWYQQKPGQAPVLVIYGTNKRPSGIPERFSGSSSGTTVTLTISGVQAEDEADYYCGSADSSTNAGIFGGGTKLTVL
B1 was tested, and the EC50 (Claudin 6 (human) [1]) was < 4 nM, the “Binding (geometric mean fluorescence)” value (Claudin 6 (human) [2]) was 63000 geometric mean fluorescence and the “EC50 (read off the curve)” value (Claudin 6 (human) [3]) was ~0.4 µg/mL.

B2: IM136 (antibody, V domains shown)
VH: AVTLDESGGGLQTPGGVLSLVCKASGFSFSSYDMGWVRQAPGKGLEWVASIYSSASSTYYAPAVKGRATITRDNGQSTVRLQLNNLRAEDTGTYYCAKAAGRTYRGWATYIADSIDAWGHGTEVIVSS
VL: ALTQPSSVSANPGESVEITCSGDSSWYGYGWYQQKSPGSAPVTLIYESGKRPSDIPSRFSGSTSGSTATLTITGVQADDEAVYYCGSADSNSIGIFGAGTTLTVL
notes: Detected with anti-human IgG Fc secondary
For B2, the Kd (Claudin 9) was 386 nM, the binding result (Claudin 4) was “no binding (tested: log [mAb] about -7.2 M)” and the binding result (Claudin 3) was “no binding (tested: log [mAb] about -7.2 M)”.
